Data: paper PMC5383425, “Differential CLE peptide perception by plant receptors implicated from structural and functional analyses of TDIF-TDR interactions” (PLoS ONE, 2017)
Square brackets hold non-standard residues; d marks the D form. Ends that are not written are not given here. Hyp = O=C(O)[C@@H]1C[C@@H](O)CN1

Tests used:
Conditions in all cases: both partners purified
[1] = biological target: T1, extracellular domain of A. thaliana TDR (residues 30-642) (Arabidopsis thaliana, UniProt Q9FII5 30-642, N-glycosylated at N111, N356, N378, N471 and N525 (one GlcNAc visible on each in the structures)); assay: crystal structure; ecdTDR 5 mg/ml (42 μM) mixed with 420 μM TDIF, 4°C for 1 hour; crystals at 18°C in 200 mM MgSO4, 20% PEG 3350; 2.75 Å
T1 construct: TDR/PXY (TDIF RECEPTOR / PHLOEM INTERCALATED WITH XYLEM) of A. thaliana, extracellular domain, residues 30-642; the structure models hold residues 40-625; also called ecdTDR; TDR-ECD; source: High Five insect cells (baculovirus), secreted, purified (Ni-NTA, size-exclusion chromatography)
T1 sequence (looked up): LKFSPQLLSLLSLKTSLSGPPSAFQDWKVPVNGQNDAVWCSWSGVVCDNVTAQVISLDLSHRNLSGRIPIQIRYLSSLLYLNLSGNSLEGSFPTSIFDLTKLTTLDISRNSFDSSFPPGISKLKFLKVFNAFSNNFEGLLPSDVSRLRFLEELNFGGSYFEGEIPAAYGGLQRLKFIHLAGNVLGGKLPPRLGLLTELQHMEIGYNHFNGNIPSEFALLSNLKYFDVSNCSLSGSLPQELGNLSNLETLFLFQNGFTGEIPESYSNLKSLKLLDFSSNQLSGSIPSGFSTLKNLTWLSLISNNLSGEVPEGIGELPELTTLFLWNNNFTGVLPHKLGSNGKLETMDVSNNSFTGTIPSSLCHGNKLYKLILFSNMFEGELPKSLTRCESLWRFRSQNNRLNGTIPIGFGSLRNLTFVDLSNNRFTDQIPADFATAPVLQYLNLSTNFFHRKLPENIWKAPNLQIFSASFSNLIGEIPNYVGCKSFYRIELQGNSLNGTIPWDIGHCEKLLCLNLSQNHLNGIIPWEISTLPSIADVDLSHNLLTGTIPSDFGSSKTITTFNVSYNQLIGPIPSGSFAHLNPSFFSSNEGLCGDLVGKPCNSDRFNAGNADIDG

[2] = biological target: T2, ecdTDR F279/F281 double alanine mutant (Arabidopsis thaliana, UniProt Q9FII5 30-642, F279 to alanine | F281 to alanine); assay: ITC; 0.5–1 mM peptide titrated into 10–40 μM ecdTDR; 25°C; 10 mM sodium citrate, 100 mM NaCl, pH 5.5; fitted to one set of binding sites; MicroCal Auto-iTC200
T2 construct: TDR/PXY of A. thaliana, extracellular domain, residues 30-642; also called F279A/F281A; source: High Five insect cells (baculovirus), secreted, purified as the wild type (Ni-NTA, size-exclusion chromatography)
T2 sequence (looked up): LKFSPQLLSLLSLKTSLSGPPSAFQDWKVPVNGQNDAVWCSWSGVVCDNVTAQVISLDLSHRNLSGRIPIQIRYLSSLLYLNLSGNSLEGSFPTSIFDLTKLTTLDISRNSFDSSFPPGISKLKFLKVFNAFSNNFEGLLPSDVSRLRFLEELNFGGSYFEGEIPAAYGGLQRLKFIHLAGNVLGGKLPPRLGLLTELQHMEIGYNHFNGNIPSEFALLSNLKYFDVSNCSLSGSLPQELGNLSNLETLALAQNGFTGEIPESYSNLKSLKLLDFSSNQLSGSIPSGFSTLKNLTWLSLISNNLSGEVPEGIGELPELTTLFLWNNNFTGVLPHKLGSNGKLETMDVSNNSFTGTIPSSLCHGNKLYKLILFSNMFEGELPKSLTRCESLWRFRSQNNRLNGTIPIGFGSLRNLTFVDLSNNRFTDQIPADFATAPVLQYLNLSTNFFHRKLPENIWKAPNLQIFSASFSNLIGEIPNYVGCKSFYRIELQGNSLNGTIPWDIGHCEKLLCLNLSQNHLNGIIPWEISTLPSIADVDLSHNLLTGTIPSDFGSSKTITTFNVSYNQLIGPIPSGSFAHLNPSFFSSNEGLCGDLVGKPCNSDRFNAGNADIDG

ecdTDR Q282A mutant = biological target: T3, ecdTDR Q282A mutant (Arabidopsis thaliana, UniProt Q9FII5 30-642, Q282A); assay: as above
T3 construct: TDR/PXY of A. thaliana, extracellular domain, residues 30-642; source: High Five insect cells (baculovirus), secreted, purified as the wild type (Ni-NTA, size-exclusion chromatography)
T3 sequence (looked up): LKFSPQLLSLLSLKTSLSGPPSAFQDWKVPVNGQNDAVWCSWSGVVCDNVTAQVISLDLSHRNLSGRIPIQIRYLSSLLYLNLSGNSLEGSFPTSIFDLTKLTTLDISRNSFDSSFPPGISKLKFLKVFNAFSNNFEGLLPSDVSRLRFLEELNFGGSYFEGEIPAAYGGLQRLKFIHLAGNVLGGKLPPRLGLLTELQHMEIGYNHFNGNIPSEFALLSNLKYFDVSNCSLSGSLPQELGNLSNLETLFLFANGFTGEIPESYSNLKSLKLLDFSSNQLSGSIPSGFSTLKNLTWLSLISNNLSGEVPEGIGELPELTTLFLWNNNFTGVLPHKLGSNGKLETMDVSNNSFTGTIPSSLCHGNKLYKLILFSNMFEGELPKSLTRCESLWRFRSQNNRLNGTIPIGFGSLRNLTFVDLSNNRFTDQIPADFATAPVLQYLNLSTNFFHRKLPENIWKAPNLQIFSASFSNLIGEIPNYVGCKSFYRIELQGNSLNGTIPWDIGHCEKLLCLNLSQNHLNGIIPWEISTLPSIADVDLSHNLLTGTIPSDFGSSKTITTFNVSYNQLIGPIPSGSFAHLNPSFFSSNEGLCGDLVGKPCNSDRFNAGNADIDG

B1: Tracheary Element Differentiation Inhibitory Factor (TDIF) peptide (peptide)
peptide: HEV[Hyp]SG[Hyp]NPISN
notes: TDIF, the 12-residue CLE peptide processed from CLE41 and CLE44 of A. thaliana; printed as HEV(Hyp)SG(Hyp)NPISN; numbers count on: the 12-residue peptide; CLE44 encodes the same peptide; also called wild type TDIF; wtTDIF; source: synthetic peptide (peptide 2.0)
B1 was tested, and the binding result [1] was “binds”, the “fold decrease in binding against wild-type ecdTDR” value [2] was 8.6 fold and the binding result (ecdTDR Q282A mutant) was “binds”.
